# In the PETadex activity labels:
# B1: unnamed (protein)
# chain: MMAAAGSGGTSGGVSGSTGSAGAAGGATGAAGGGASSTGGFVREDAPTEMSTRAAKGKYTVKSYTSGFSGTGKDFLAGTLYYPTDADPPFASVAVVPGFTALQNSIMDWGPFLASHGIVTMTIDTLTTSDPPAQRADELMGALKSIAGENTRDGSPIKGQLDTTRQCVSGWSMGGGGTLIAASMHPELKCAVSFAAWQPTGGAMNKVPALMFEGTTDPLAAGMSQGFYDQTPDSTPKMIFEVAGASHDVANSPHNSMGIIGEYGLSWFKVYLEGDMRYKQFLLLP
# B2: unnamed (protein)
# chain: MNRSILERFVVGTSALLFSISAYSFTPSPTPEPEPEPCQGVCDFTRGPNPTSSYLEASRGPYSVNTVDVSRSVSGFGGGTIHYPTNTTGKMGAIAIVPGFLAAESSIAWWGPRLASHGFVVITIATNSTFDQPASRESQLSRALDYVINQSNSSGSPIAGKVDSTRVGAMGWSMGGGGTLKIASGSRLSAAIPLAPWHTGSNDFDQIDTPTMIIACENDTTAPVGRHASPFYNRISNATDKAYLEINNGGHSCANGGGTNAGLLGKYGVSWMKRFIDKDTRYSQFLCGPNHASNSAISEYRDTCSY
# B3: unnamed (protein)
# chain: MMNSVMDRFTIAASAVLFSASAWSFTPTPDPDPTPPPQPCQVDCDFTRGPNPTSSYLEANSGPYSVGTVRVSSSVNGFGGGTIHYPTNTTGKMGAIAVVPGFTAGESSIAWWGPRLASHGFVVITIATNSGFDQPASRATQLSNALDYVISQSNSSSSAISGMVDASRLGAMGWSMGGGGALRLASGARLSAAIPLAPWHSGSNPFDQIETPTMIIACESDSTAPVGSHASPFYNRIPASTDKAYLEINNGDHRCANGGGSNGGLLGKYGVSWMKRFIDRDTRYQQFLCGPNHEANTAISEYRDTCAY
# B4: unnamed (protein)
# chain: MKLERSVAQATSVARGARRHEKPSSLTSVALAGVSLALFSTFAHADVLLQENFDGNLGQFSSSGSVTVTTSGARMAGSYGGTDGAITSPAISTVGFTGLSLSYTRTTTGLDSGEGGFLEYSTNGTTFTSLGSTQSASGPVTVALPAAVENQAALRLRWRVNASLSSEYYTVDTILLEGTGGTSCEPNCPPTGNPYQRGPAPTVSSLQATTGPFQTASSAVSSSAADGYGGGTIYYPTNTTEGPFAAIAVVPGYLSPQSSIQQWGPRLASWGFVVITIATNSTSDQPSSRATQLVAALDQVVSYSNSTSHAIRGKVDPARLGVAGWSMGGGGTLIALDRNATKLKAGMAFAPWNSSTNFSGVNQPALIFGCESDGTAPVSSHSLPFYNSMPSTNDKAFAEVNNGGHSCANDPRNNSGMIGRYGVSWMKRFLDNDTRFSDFLCGAPHDTAVSGSTFSRYLETCPY
# B5: unnamed (protein)
# chain: MRTSRTRPLRRLAAALVLALAVVLAACDIRGPDPTEQSLTASSGPFAVGTLAVPSSAGFGGGTIYYPTNTEGPFAVISVTPGFTGTQSSIAGWGPRLASHGFVAITINTTNTFENPDTRSTEQRQALTYVVNQSNTSSSPIYGKVDGNRRGVAGHSMGGGGTLISAQADPTIRAAVPLAPWNSSTNFSNVTVPTLILACQNDSIAPVASHASPMYNSIPATTDKSYLSIAGGDHFCANSPTGGSGNVGKYGVAFFKRFLDGDTRYDPWVCGASKPAAGSAINEVRSTCPF
# B6: unnamed (protein)
# chain: MIIRYISRLALLAGAMTLSASLWAAPVPCRDCSTGYQRGDVPSTAELESRRGPYSVRTIRVSRLVNGFGGGTIYYSTESGGGQGIIAVVPGYLSLETTIQWWGPRLASWGFTVITMDTNTIYDQPTSRASQLSAALNYVINKGNDSRSPLYGLVDPNRTGVIGWSMGGGGALELSTRRNIQATIAQAPWHVGAGTFAQISTPTMILACQLDAVAPTAIHAKAFYNVIPRTTSKAYFEVRAGSHFCANTGYPNTDIIGRNGIAWMKRFIDNDTRYNQFLCGPNFESDFRISKYRDTCNY
# B7: unnamed (protein)
# chain: MDKTRLFSTLSMVTSALLFSISVSAGKPSKGGDEPAPEPAACISDTDITSAALSSTGSSGPFTVSTKDVSRWSASGFGGGTIHYPTGAGDCGPIGGIAVVPGYVSYEASIKWWGPRLASWGFVVITINTNSIYDQPDSRATQLSAALDHIINDSTVGSMVDSSRLGAIGWSMGGGGALKLATDRSEVKAIIPQAPWYSGRYGRMKTPAFMIGCENDFVAPTSNHVDVFYANASGPKMKIEVNNGDHSCANSGYNETLLGKPGIAWMQRYIHGDTRFNQFLCGNENYGSSNSVSAYDFESCP
# B8: unnamed (protein)
# chain: MKTTALRIKGLSIAAAIALSTLAPAAFSQTSPPTSASLNATSGPLSVSTASVFLPVGFGGGTIYYPTVAGKYGVIAISPGFTATESSIAWLGRRIATHGFVVITLNTNTTLDQPDSRATQLMAALRYVLNSSGSAVRARIDPTRLAVAGHSMGGGGSLIAARDNPTLKASYPMTPWNISSNFSTVRVPTMIIGADGDTIAPVASHARPFYASLPSSTLKAYGELNGATHFAPNTTNTPIGRYAVTWMKRFVDGDTRYSPFLCGAQHTSYATSRIFDRYNQNCPY
# B9: unnamed (protein)
# chain: MSLVSHRAATTRACSKPQTEISRSPRNRRGAFIACVSLALVSSFAHADVLLQENFDGTLGQFTSVGSVSVTTSGARMAGSFGGTDGAITSAAISTVGFTALSLSYTRTTTGLDSGEAGILEYSTNGTTYTSLGSTQSASGPVTVGLPAAAENQAGLRLRWRVNASSSSEYYTVDSIQLQGTGGTSCEPNCPPTGNPYQRGPAPTTSTLDATSGSFTVDSVTVSSTAANGYGGGTIYYPVNTTEGPFAAIAVIPGYLSPQSSIQQWGPRLASWGFVVITITTNSGSDQPSSRATQLVAALDQVVSYSNSTTHAIRGKVDPTRLGVAGWSMGGGGSLIALDRNPTKLKAGMMFAPWNSSTNFSGVNQPALIFACESDGTAPVSSHALPFYNSIPSSNDKAFAEVNNGSHSCANDPRNNSGRLGRYGVSWMKRFLDDDTRFTEFLCGAPHSSVISGTTTYSRYLSTCPY
# B10: unnamed (protein)
# chain: MFNIRKVAVAASVLLVSMAASAQYQKGPNPTASALERTGSFSTGSSSVSSLSASGFGGGNLYYPTASGTYGAIALCPGFTATSSSLAWLGPRLASHGFVVLIIDTNSTLDQPDSRGRQLKAATDYLVAQNSRTGSPIRGKVDTSRLAVGGHSMGGGGTLEAIRDNPSYKAGMPLAPWNTTKSFSRITVPTLIIGGSADTVAPDGSHSIPFYTSIPSSTAKIFMELRGGSHFFPQTSDPNVSRFAISWYKRWLDLDTRYSTFLNTRPSTTAVSDFRVSRTF
# B11: unnamed (protein)
# chain: MTSTTVRFAKRLIGAAALLATASVFAQSLPSDAALQATSGPLKIAQANIATPNGYGSGTVYYPTTGTNMGLVVIAPGFTEGPSFNAFWGEKLASWGFVAVNIGTKTTLDLPGPRATQMWAALQQVAALSKTSGSPFAGKVDANRLAAMGHSMGGGGTLLISQDHPTLKAAIPMAPWNLTQKNFPKITVPQLMFACQNDIIAPVSGHADRFWTSFNTTLPRVFAESKGQDHFCPTNLTSAAEKAAFGRIAIAWYKIYLDGDTQYKQVITNGNSPVFSRYLTGGL
# B12: unnamed (protein)
# chain: MQVRLSSLCRTALVALGLAWAAATAHAQTIDDASDISLAIGPAPTSSALNALNGPFAVSTSIVVLPVGFGGGTIYYPTQAGKYGVIALCPGFTATSTSLAWLARRLASWGFVVVNMNTVTVFDFPSSRATEMRVALRYATNWSSATVRARIDPNRQAVAGHSMGGGGALIAAVRNPELKAAYALMPWSPTYSPTSMKVPTMLVAADADTIAPAALMVRPYYKLIPATVPKAYAELRWGNHFSPILVNTPIGRYGAAWMKRFVDGDTRYQDFLCGAAHQYYANALVFASYLKNCPY
# B13: unnamed (protein)
# chain: MKTNRRRRLGRLALAAAALLLSVAAQAQNGSAPPGPDPDPDPNPPESDNPYPRGPDPTAATLEASSGPFAVSSFRPSSTPGFGGGTIYYPTNTNEGPFAAIAVAPGFVGTESTIDWLGPRLASHGFVVITIDTNSLFDFPDSRASQLMAALDIVIAESNGSSPISGLVDPDRTGLMGHSMGGGGSLIAARDNPTIDAVIPLAPWNSSTNFSAIDVPTLIVACENDTVAPVSQHASPMYESIPSSVDKAFLEINGGDHFCANSGNANQDILGKYIVSWMKRFLDQDTRYDPFLCGPNHEADPDISEYRDTCPY
# B14: unnamed (protein)
# chain: MNKTILEKIAVGTGALLFSVSAFSFTPSPTPDPTPDPEPCQGECDFTRGPNPTSSYMEANAGPYTVRTSSVSGSVSGFGGGTVHYPTNTSGEMGAIAIVPGFLAGESSISWWGPRLASHGFVVITIATNSVFDQPGSRSTQLGRALDYLVSQSNSSNSPISGMVDASRLGAMGWSMGGGGVLRLASGSRLVAAIPLAPWNTGSNDFDQIQTPTMIMACENDSTARVGTHASPFYNSIPGSTDKAYLEINGGSHSCANGGGSNGGLLGKYGVSWMKLFMDEDTRYSQFLCGPNHAANGAISEYRDTCNY
# Substrate: BHET
# Conditions: 120 h
row,Protein,plate clearing
1,B1,not clears the plate
2,B2,not clears the plate
3,B3,clears the plate (z > 3 vs empty vector)
4,B4,clears the plate (z > 3 vs empty vector)
5,B5,not clears the plate
6,B6,not clears the plate
7,B7,not clears the plate
8,B8,not clears the plate
9,B9,clears the plate (z > 3 vs empty vector)
10,B10,not clears the plate
11,B11,not clears the plate
12,B12,not clears the plate
13,B13,not clears the plate
14,B14,not clears the plate
